The values below come from patent US20030186223A1, “Modular recombinatorial display libraries” (Dyax Corp., priority 2002, published 2003).

Positions of bridges follow the written chain, without caps; N, C: chain ends. No end group written: not given here.

B1: SEQ ID NO 43 phage isolate (peptide, not shown: large carriers; small tags and cut ends)
peptide: SNKCDHYQSGPFGDICVSY
modifications: disulfide 4-16 (inferred); also: displayed on M13 phage fused to protein III via linkers
B2: SEQ ID NO 42 phage isolate (peptide, not shown: large carriers; small tags and cut ends)
peptide: SNKCDHYQSGPFGDVCVSY
modifications: disulfide 4-16 (inferred); also: displayed on M13 phage fused to protein III via linkers
B3: SEQ ID NO 44 phage isolate (peptide, not shown: large carriers; small tags and cut ends)
peptide: RTTCHHQISGPFGPVCVNY
modifications: disulfide 4-16 (inferred); also: displayed on M13 phage fused to protein III via linkers
B4: SEQ ID NO 45 phage isolate (peptide, not shown: large carriers; small tags and cut ends)
peptide: RTTCHHQISGPYGDICVKY
modifications: disulfide 4-16 (inferred); also: displayed on M13 phage fused to protein III via linkers
B5: SEQ ID NO 10 phage isolate (peptide, not shown: large carriers; small tags and cut ends)
peptide: RLDCDMVFSGPHGKICVNY
modifications: disulfide 4-16 (inferred); also: displayed on M13 phage fused to protein III via linkers
B6: SEQ ID NO 12 phage isolate (peptide, not shown: large carriers; small tags and cut ends)
peptide: AHQCHHWTSGPYGEVCFNY
modifications: disulfide 4-16 (inferred); also: displayed on M13 phage fused to protein III via linkers

T2 sequence (P35968 with tags, fused parts or gaps limits assumed): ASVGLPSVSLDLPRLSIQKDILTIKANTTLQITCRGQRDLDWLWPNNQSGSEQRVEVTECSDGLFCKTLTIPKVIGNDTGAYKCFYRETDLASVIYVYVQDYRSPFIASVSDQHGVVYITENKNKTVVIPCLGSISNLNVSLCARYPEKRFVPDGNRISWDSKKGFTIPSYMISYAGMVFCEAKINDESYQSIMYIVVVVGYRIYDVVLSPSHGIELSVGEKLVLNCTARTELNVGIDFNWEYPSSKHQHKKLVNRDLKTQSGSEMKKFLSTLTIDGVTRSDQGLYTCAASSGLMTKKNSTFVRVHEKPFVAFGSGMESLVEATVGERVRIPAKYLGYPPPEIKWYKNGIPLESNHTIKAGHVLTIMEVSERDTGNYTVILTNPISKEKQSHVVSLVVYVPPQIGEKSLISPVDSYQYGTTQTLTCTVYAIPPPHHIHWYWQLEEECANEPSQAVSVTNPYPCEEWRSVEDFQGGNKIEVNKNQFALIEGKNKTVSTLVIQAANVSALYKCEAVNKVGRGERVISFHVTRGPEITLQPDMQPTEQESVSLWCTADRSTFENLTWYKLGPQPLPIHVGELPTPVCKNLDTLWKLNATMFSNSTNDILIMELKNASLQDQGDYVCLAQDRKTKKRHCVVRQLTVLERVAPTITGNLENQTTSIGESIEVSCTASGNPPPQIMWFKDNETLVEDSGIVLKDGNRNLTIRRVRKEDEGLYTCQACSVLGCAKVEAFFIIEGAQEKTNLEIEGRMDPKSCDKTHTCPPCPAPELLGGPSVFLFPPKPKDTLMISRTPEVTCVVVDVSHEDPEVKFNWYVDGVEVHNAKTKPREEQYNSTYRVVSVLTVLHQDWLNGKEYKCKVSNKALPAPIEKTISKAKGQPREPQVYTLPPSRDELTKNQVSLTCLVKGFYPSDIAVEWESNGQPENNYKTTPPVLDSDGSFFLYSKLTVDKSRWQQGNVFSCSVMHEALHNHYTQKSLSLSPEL
T1 sequence (P35968 20-764, change not shown): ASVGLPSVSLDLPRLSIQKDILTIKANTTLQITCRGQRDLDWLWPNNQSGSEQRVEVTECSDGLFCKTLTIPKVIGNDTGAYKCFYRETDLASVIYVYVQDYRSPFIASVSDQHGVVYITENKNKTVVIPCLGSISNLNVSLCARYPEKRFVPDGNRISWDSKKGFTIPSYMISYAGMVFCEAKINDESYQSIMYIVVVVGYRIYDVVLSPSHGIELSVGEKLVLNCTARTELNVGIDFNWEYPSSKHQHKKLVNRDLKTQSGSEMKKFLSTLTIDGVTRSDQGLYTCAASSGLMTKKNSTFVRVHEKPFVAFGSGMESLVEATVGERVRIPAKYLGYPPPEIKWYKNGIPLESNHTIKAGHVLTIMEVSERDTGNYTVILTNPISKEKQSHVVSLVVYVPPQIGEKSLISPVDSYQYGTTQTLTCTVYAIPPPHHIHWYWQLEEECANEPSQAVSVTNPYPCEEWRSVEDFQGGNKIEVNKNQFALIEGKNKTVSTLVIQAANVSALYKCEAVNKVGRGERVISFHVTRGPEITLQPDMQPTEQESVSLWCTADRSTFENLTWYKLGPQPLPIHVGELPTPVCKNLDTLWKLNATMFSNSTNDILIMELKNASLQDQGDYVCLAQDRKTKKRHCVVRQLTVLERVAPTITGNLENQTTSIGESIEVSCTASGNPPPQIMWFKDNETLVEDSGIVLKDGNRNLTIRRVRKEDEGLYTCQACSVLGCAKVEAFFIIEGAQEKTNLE

One assay has as its target T1, KDR-Fc fusion (chimeric fusion of Ig Fc region with human KDR, R & D Systems #357-KD-050) (human, UniProt P35968 20-764).
T1 construct: Bought carrier-free from R & D Systems; also called KDR-Fc fusion protein target; KDR target; not shown: Ig Fc region
As to the kind of experiment: BIAcore SPR, KDR-Fc immobilized on chip, synthetic peptide flowed over.
Conditions: not given
Ac-SGRTTCHHQISGPHGKICVNYGS (cysteine pairing not given here) [SEQ ID NO 22 synthetic polypeptide] came in with a Kd of 650 nM. The same measure, in the same setting: with Ac-SGRLDCDKVFSGPYGKVCVSYGS (cysteine pairing not given here) [SEQ ID NO 49 synthetic polypeptide] the figure was 1000 nM.

Another assay concerns the target T2, KDR-Fc fusion protein (Homo sapiens, UniProt P35968).
T2 construct: purchased R & D Systems (Minneapolis, Minn.) 357-KD-050
Nature of the assay: BIAcore surface plasmon resonance binding of synthetic polypeptides to immobilized KDR-Fc. Conditions: BIAcore SPR; KDR-Fc fusion immobilized on chip; synthetic polypeptide with acetyl-Ser-Gly- and -Gly-Ser flanks. The method, then: Binding affinity of selected peptides from the various rounds of selection was tested using a BIAcore surface plasmon resonance spectrophotometer. Polypeptides selected from Tables 1, 2, and 3 were synthesized by solid phase synthesis using the sequence as shown in the tables above and an N-terminal flanking peptide, acetyl-Ser-Gly-, and a C-terminal flanking peptide, -Gly-Ser. A KDR-Fc fusion protein target was immobilized on a BIAcore chip, and the synthetic polypeptides were flowed over the chip to measure the KD of the polypeptides with respect to the KDR target.
With “SNKCDHYQSGPYGAVCLHY (Selected library sequence) [SEQ ID NO: 7]”, the “binding to KDR target (qualitative)” value is “no binding”.

On to “WQECTKVLSGPGQFECEYM (Selected library sequence) [SEQ ID NO: 24]”, for which the “binding to KDR target (qualitative)” value is on record as “no binding”. On the same count and under the same terms, the same measure for “SNKCDHYQSGPHGKICVNY (Selected library sequence) [SEQ ID NO: 23]”: “no binding”; for “WQECTKVLSGPGQFLCSYG (Selected library sequence) [SEQ ID NO: 6]”: “no binding”.

A further assay concerns the target T1, KDR-Fc fusion (chimeric fusion of Ig Fc …). As to the kind of experiment: secondary library, round 1: phage display selection against KDR-Fc as before.
Conditions: not given
B1: the binding result was “binds”.

On to B2, for which the binding result is listed as “binds”.

As for B3, the binding result is “binds”. Same read-out and setting: the same measure for B4: “binds”.

Another assay shares this target. As to the kind of experiment: phage display selection on KDR-Fc beads and phage ELISA screen on KDR-Fc.
Conditions: not given
As for the experimental part:
The phage library was incubated with 50 μl of Trail R4 Fc fusion beads on a Labquake shaker for 1 hour at room temperature (RT). After incubation, the phage supernatant was removed and incubated with another 50 μl of Trail R4 beads. This was repeated for a total of 5 rounds of depletion, to remove non-specific Fc fusion and bead binding phage from the library. The depleted library was added to 100 μl of KDR-Fc beads and allowed to incubate on a LabQuake shaker for 1 hour at RT. Beads were then washed as rapidly as possible with 5×1 ml PBSTH using a magnetic stand (Promega) to separate the beads from the wash buffer. Phage still bound to beads after the washing were competition-eluted using soluble VEGF₁₆₅ (#100-20) purchased in carrier-free form from Peprotech (Rocky Hill, N.J.) as follows: The beads were incubated with 250 μl of VEGF (50 μg/ml,˜1 μM) overnight at room temperature (RT) on a LabQuake shaker. […]
Once the plates were prepared, each overnight phage culture was diluted 1:1 (or to 10¹⁰ pfu if using purified phage stock) with PBS, 0.05% Tween-20, 1% BSA. […] Each plate was washed 7 times with PBST (PBS, 0.05% Tween-20), then the plates were developed with HRP substrate (˜10 minutes) and the absorbance signal (630 nm) detected with a plate reader.
With B5, the binding result is reported as “binds”. B6: the binding result was “binds”.
